Assay results published in patent US5472938A, “Pharmaceutical depot compositions containing hirudin” (Ciba-Geigy Corporation, priority 1993, dated 1995).

Test: Storage of hirudin in water, chromatographic analysis (Mono Q / ProPac)
Assay type: physicochemical
Settings: FIG. 2
Description: MONO Q METHOD: The stability of hirudin can be analysed by FPLC ([…] protein liquid chromatography) using a Mono-Q column (10 μm particle size, 5.0×50 mm, purchased from Pharmacia). The method was developed by Ciba-Geigy, Basel. Solvent A is 50 mM HCOONH4 in H2 O pH 4.5, and solvent B is 50 mM HCOONH4 in H2 O , pH 3.5. The elution is performed at room temperature (22° C.) using a flow rate of 1.4 ml/min. The binary elution for the first 5 min is at constant flow of 20% B, followed by a linear gradient from 20% B to 75% B over 10 minutes, and 2 minutes at 100% B after which the column is equilibrated for 2 min at the starting conditions of 20% B.
PROPAC METHOD: A recently published method for hirudin analysis can also be used [Tuong, A., Maftouh, M., Ponthus, C., Whitechurch, O., Roitsch, C., and Picard, C. (1992) "Characterisation of the Deamidated Forms of Recombinant Hirudin" Biochemistry 31, 8291-8299]. In this method a ProPac PAl anion-exchange column (250×4 mm i.d.) from Dionex is used. Solvent A is 20 mM Tris-HCl, pH 7.0 and solvent B is 0.5M NaCL in A. Isocrastic elution for 5 min at 28% is followed by a linear gradient from 28%B to 54%B over 60 min at a flow rate of 1.3 ml/mim.
The two peaks which elute in the front of the main peak (FIG. 1) are referred to as Q4 and Q5 peaks, respectively. […] The exact nature of the products which produce those extra peaks is not known.

## hirudin
  change of chromatogram on storage in water: increase of the Q4 and Q5 peaks with time
